Drawing on publication PMC4372375, this text covers LDH release assay, % cell death of SH-SY5Y cells after 30 h with 10 μM PP oligomers formed with heparin (PP incubated without heparin: no significant LDH release) for one molecule.

The experiment has as its target pancreatic polypeptide (UniProt P01298).

B1: pancreatic polypeptide (peptide)
chain: APLEPVYPGDNATPEQMAQYAADLRRYINMLTRPRY
Take B1: the LDH release assay, % cell death of SH-SY5Y cells after 30 h with 10 μM PP oligomers formed with heparin (PP incubated without heparin: no significant LDH release) worked out at 35%.
